Test results: the domain aggregation screens of Martell et al. (2025)

Experiment: soluble fraction after stress (log2 fold change); higher = more stays soluble; pooled small domains, quantitative proteomics
Details: stress: 75 degC
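Further: 20 min heating vs room temperature control held 20 min.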

| Sequence | soluble fraction (log2) |
| --- | --- |
| HMAPGSKAEIPEDLMKVINKDPKMKAFVATLNKANIMAISFRLSTAKKPETRERRFNLILETLKRGEKF | -3.16 |
| HMAPKVTLNETETAIFEKMQQEKQLLLSELRTHFDISNKLWDTSIKTLTKNQLLTVSKEADLLWIKL | -1.34 |
| HMAPLAVIFPEPWRGMIAPEKLEGLTQALSLNPRPGYQHDPTRRYGVSLDGLDVRFTIDGDTLTVVEVVT | -1.64 |
| HMAPNKLQQQEVWTKALPLLQQMIMTIRQIDAAGGDSSPERELLEETAARFDETLDVERFLP | -0.339 |
| HMAPPPLAGAREALREQIRRGSLSARRGFDAYADALGLPAGTRGAHPIFAALQRLDYPQALRLLDQEPT | -0.0614 |
| HMAPQVKIPNLVDVSQRQAEAILNSYGLKVGHLIYKPDLAKDAVLGFMFNGRSLKAGDELAKGSSIDLILG | -0.277 |
| HMAPRDKADKYVAAGIAEELVPILQKVGYYLVTDLKDVKAQKIQQQIGEIIKKYKLDIEKPSVQDIEGWN | -0.192 |
| HMAQDIEQLEKAVSFYTRMDPAAAALSITNLDQKTAVNILMRMKDKQASAVLESMTAERSSELIDSIARK | 0.0292 |
| HMAQELPYEKVTMNGKMFYVYHVKAGEGLYLISRTFSVNADEILKFNPSIENGLKSGQVLYIPIK | -1.23 |
| HMAQISDESALYDLVKSVLDANPQSIADYKAGRDRALGFLMGQAMKLSKGKANPPVINKILKEMLDK | 0.161 |
| HMAQKQLYIAGTDYTKNSTSQLVLAYFPAKPSSIKIFFDGIYQNKDKWSLFGKTIIFGLPISSNAVEVHYE | -4.34 |
| HMAQLPADLSKVKSSQISDQQLTQIAQQAKNSGQSEQAVLQELKQRGLPDTEIQALGARISGLMQ | 0.211 |
| HMAQLVVTVDKLNKRTAIPVTLSDKSSNDSVVEKGFRFEGFPFVNTATNGKKWYKDREGFFYWAGGLMEEA | 0.0903 |
| HMAQMDDPEMVLHIYNKMIQQRLFDTAVGYSYLKDLQEYLQSIPFIRKEDIFPIPVQHPQVEESLRKAK | -0.689 |
| HMAQTSAELIIEYLKRNDGFMELTDKSPADEIYETFGISKKNFKMAVGSLYKNRVIEIGQNGIRLVE | -0.426 |
| HMAQTTKWREIHKVKRKETIFGIARDNGLTVDELIEANPEMTKPGYELKKGDFIYIPFPSKNIDTNAGTQT | 0.498 |
| HMARAESYGDIARLEQLLDEHANIAALDPGKLPAVRQQIWTLMRAARMDHDLGLAERPEDDSFDDMLLHV | 0.208 |
| HMARAPIYPDGLTQREVEVLSLVAAGKTDREIAEELFIALRTVTTHVGNILNKIGAANRTEAAGYATRQGL | -1.7 |
| HMARAVSPLEAIPGVGPRRRQQLLKQLGGMQEVARAGVEDLSRVPGISRALAQQIYDAFHGD | -0.287 |
| HMARDPWDVLGVAKTATNDEIKRAFKRQAMMTHPDKQGGSEERFKEVNEAYSHIKDEQSRAKYQNSQ | 0.158 |
| HMARDSYNGVQRTISTLLGQGNYDRAYDVAVGARGQMSKQQWSDVAKRIYEVSGIKIDDSVKY | -0.113 |
| HMARRSRADAVRNREALIDAAKAAFTEAGPDVSLEEIARRAGVGIGTLYRHFPTRDAVIEAVYR | -0.185 |
| HMARRTPPPTVSELNALLRVAAPHIQRVILLGIYTGARIGPSELFSLKWDDVDLTRGVIGIRL | -0.0659 |
| HMARTDVKLREVAQELLRMGLLEESLRPHLYRTALASMERLNATLEPLDLIARADEIRGLVFLAVRH | -2.73 |
| HMARVSGIDLPKNKRGYIGLTYIYGIGRSTALHILNSAGVDPEKKVHEWNDDETTAIRNIINAEIKVEGAL | -0.631 |
| HMASAKTVAQSGTYKFAKTTAIKSSASDAASTVGTYYKGNTVNYNAKVTTNGQTWLRYTSYSGAQYYVKVS | -3.66 |

| Sequence | soluble fraction (log2) |
| --- | --- |
| HMASANMPDVLGLDAETAKQVLAAKGFTKVEIYPMESSEPANRVVRQSEDRDTMVALTKEILLGVSNGS | 0.0531 |
| HMASENISYSQFINQVKNSMVESVSIEADGKTISGKYKSGSSFVTYGLNDPKLVDDLLSNNVEIL | 0.143 |
| HMASGLITEEQAKSKALAHAGLSASQVNFIWVKQDWEDGRRVYEVEFYTDDYQEYDYEIDARTGEILSFDY | -1.84 |
| HMASIGTATVTADNLRLRSEAGTGAETLTMAPKGAEVTVEEDAGDGWYKVTYGDTEGYMSGEWLKITLA | -0.0355 |
| HMASLIGEEKALQIALEHAGVALENVAYSQVKLENDDGRWEYDTEFYSGSKEYDYEIDASTGEILGYDHD | 0.0872 |
| HMASLSITVNGETRRAAPGSIADLVRAIGLDPAKVAVERNGEIAPRSTLADVALADGDVLEIVHFVG | -0.359 |
| HMASMEDILAEAKTKFQEGDLFKSVNEGIQGTHKLTLPLRIKESRIVDASGAAVYREGIWATVDK | 0.166 |
| HMASMNPVWLEFPNIPWGSAGWRMGWGEDYMRRWAKWYISLAEVERQSYKSDWPEPQEWEGFYAFMEHGT | -1.85 |
| HMASPEIAFLNKFYQLSNTVNEISVMKIVKNYQEKYQQRISIEQMAKTLKTMGYAVRNNIISNIEEAPV | -1.53 |
| HMASPRVWKDASSGRTLTGEFVELTKDAVKVRRANGDVVSLPLSRLTEEDITFAKGASETGGA | 0.198 |
| HMASVLTAKLSEREVDVLNLLARGFTNADIAAQLHLSEGTVRNHVSTIFAKLDVNDRTQAAVIAIRHGL | -2.52 |
| HMASVLTGMLGRVTGELAPKGIVMVGNETWTAVSEDDSVIRIGEPVEVRSVEGLILTVFRRID | -2.66 |
| HMATAADLLQSATGVPRSDALLLLAKLLGVAKERLIAHPETVVSEKTQATFSDWIERVRGGFPTTYLLG | -0.393 |
| HMATAEETTPLWARNRLSHAIFGPGSVTGEDERSFEVAFDNGDTLNFSKKSAHLYFTAMSSR | -0.169 |
| HMATARPPPPPESRVEVLFDGRWYAGTVVGGALDEHRATVFFDADRLSQVINFAETGIRVLGT | -0.123 |
| HMATEYIIPTVTNKKLEEAIGIAQLRGFEISVDEYKPSDIDEGTVLEQSPAAGTNAKQGDTISVTVSSG | 0.476 |
| HMATFTPYLVRITASVLNIRKGPGTTYAVTGQIKDRGVYTIVEQKGNWGRLKSGAGWISLSYTKK | -3.25 |
| HMATPAFEMYKVRRGDTPAGLAKEWGFPDMASFYRINPDARSDWKRGLQLVKPMNEMAVLQATA | -0.302 |
| HMATPKYMELVRWINEQIESKNLVPGQKMYSENTLKEMFGVSRQTVRHAIGVLENEGVIRRIQGSGTYIN | -1.51 |
| HMATPSTGQVSVVRLNLRVSPSISSPVVTRLTQGDTVKILAASDDGRWYKVATADGRTGWLYTIYITAE | -1.34 |
| HMATQTGTVKWFNEGKGFGFIAPDDGSKDLFAHFSEIKTTGFKTLAEAQRVEFEVTEGRKGLQASNIK | 0.442 |
| HMATRLPFGFAKRFGVLVEGKDDQITVYHKDGLQTAVILEIQRYLARPFRFEAVTPEEFERRLGLAYQS | -2.44 |
| HMATSNDTQITGSLALRFDGSGDTFTVNVNGDDKLEINTEGTVIYKPLTTAPTYVSGGLFFSSSGDFYVG | 0.00147 |
| HMATTIDFTVGDDVQVMNGPLESFTGKVTELNEASQKVKVDVVMFGRVTNVELDFVQVKKIT | -1.04 |
| HMATTIEAPMPGKILDVKVNPGQAVSYGQVVLTMEAMKMETEIVAPADGTVASVLVKSGDMVETGAALVSL | -0.344 |
| HMATTMSADWRPSEDAVGILVNAEINARFIEDAIPEFVLYWRERGAVHGAWNSKFIEHIRRQWAKFSAS | -2.84 |

| Sequence | soluble fraction (log2) |
| --- | --- |
| HMATTPEETILEYINKNNRISKQEIADLMGITRDGVSYHIKKLRKNGLLEWIGSPSNGHWEIIE | 0.38 |
| HMATVHPIRIQGGMTTQQGGKTVWLWVSDEGRLMTEDEIAGESGGTVSSRMVRGVRVLTGTGVIYG | -1.96 |
| HMATVIDVATTLGRPITDPDEQRQVLNWIGKTERIISARLGDLAALDRQILADVISEVVARRARN | -0.495 |
| HMATVNIGNLTFTHKGDYASGTTYAKNDVVYYSTNGNAYIAKQATQGNAPTSTAHWDVFAAGSGG | 0.245 |
| HMAVDAASSTIGKNVEVSVANEKGDYENFNGKVKSASIKDGVVYLELELKDTGEIKEVPYSSLTKIT | 0.0437 |
| HMAVDPSVLTRRERQALAWIARGLSNKEVARGLNLAESTVKVHVQSILRKLNLTSRVQAAVYAIEHGIDK | -3.08 |
| HMAVFRVGDKVKSMEGMIGEVRGINGRLIQVATPYGLRDYYPHQITKVENPLAAAPAPLNEEA | 0.767 |
| HMAVGVFQKEDGYWGYRFSIIVDGKTIARRKFTDENGSKLRTKSEAVKARAAAMVAARMERVS | -3.46 |
| HMAVIILDEPTLGLDPAVRISLWQAIQSARDSTMSAFLITTHYIKEVADYLSAVKILDHGREVASGNPSAL | -0.313 |
| HMAVKLELYRVFKEVAETGNISAAAKNLYISQSAVSQSIKQLETALQARLFARSPRGVTLTGEGQMLYQYV | -1.5 |
| HMAVKNAQIDVQQFFYSKSGEVDFGRKIKAIQSHFTPERLQSFTAAVPPSQWVSQLQVMWDSL | -2.12 |
| HMAVLGIQPVFHRSTGQTVYKSSVNTAKGRVYLGLFPTLTEALEIKLKYMQEHGHTKGITNLTNKLKEL | -1.05 |
| HMAVPFTIDVSQNGRYFIEEDNQVVEVSIGFLEDRFLRIIKSNPDIEVIIRGDAKASYESIAELLAVLQ | -0.904 |
| HMAVQPMDQVKAWLAEDNPADIKLLVPVLQKLDLLDYEQVRGEVADRAGVRKSLLDEAVKGN | 0.0888 |
| HMAVRTELLALPAGWHGDASRLSTALAALQGVREAVVIASEGVAYLKVHGHDWDRDGARELLQN | -1.12 |
| HMAVSGRGSIIGGVATVLDDFADSGKVWLEGEAWQARSSVPLKQDQEVVVRAMDGLVLVVEPVA | -0.442 |
| HMAVSNWQKLVSSIQTQLKILALYHGPEDGIYGPNTRSAIMLYEENIGLPVTGEPSRELLAHMLDQTD | -1.64 |
| HMAVTNLTAKQISDTRWRVTWDSTLASPTYYVYRDGLLMMQTRQELYEFDAARGEQVQIDVLDDMAAAPAE | -0.853 |
| HMAWAVRAGEGVLIRAGQPGFSATTRGTALSNGAIGEGVRVRNLGSGKEIQAWVVDKGEVETR | 0.00511 |
| HMAWIAVATKEDYSEYEWKELSPTTDWSTQTFDLGDLAGKTIYAVKMFFDHDTDVKDYKFNLGQLSITSN | -0.189 |
| HMAYRLDVRNQTKGTYLVIQKKYWDKEKKQSRTKHHMSLGYVHDLQKLYSDPITHYKEVINQMNAEEKG | -2.09 |
| HMAYSEEDRRRVREELLTTALKLMSTQGIQHTTVEQVYRSVGISRSFFYAFFPTKEDLIVEAL | 0.0495 |
| HMDAAANTLRILKALSESPMSADRLAELLMEEGSGRNPRTIRRYIRALREAGFGVEHREGRYVL | -0.387 |
| HMDAAEVEATARAMLRRSALNLLAQREQTAFELKQKLSRRFPEQAALLDEVIERLQEQGLQDDTR | -0.0318 |
| HMDAEEISILLEKAVLQLPEKQKMIFQLKYFEDLSYKDIQIITGGSIGGLKANYHHAVTKIEKLLS | 0.123 |
